Source: patent US6703362 (CYTOGEN, dated 2004)

T1: D2H receptor domain (human D2H transporter, amino acid residues 387-685), His-tag fusion protein (human, UniProt Q07837 387-685)
T1 construct: purified under denaturing conditions; also called recombinant D2H; not shown: poly-histidine tag (pET vector) at the NH2-terminal end
T1 sequence: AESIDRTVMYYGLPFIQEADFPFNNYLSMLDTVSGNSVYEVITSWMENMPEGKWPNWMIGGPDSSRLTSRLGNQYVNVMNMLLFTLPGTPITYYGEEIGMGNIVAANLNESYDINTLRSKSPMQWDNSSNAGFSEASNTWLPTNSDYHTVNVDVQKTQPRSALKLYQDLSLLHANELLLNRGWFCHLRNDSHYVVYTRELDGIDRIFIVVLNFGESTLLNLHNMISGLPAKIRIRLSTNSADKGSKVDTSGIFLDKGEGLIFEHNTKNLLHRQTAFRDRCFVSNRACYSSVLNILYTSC

T2: hPEPT1 receptor domain (human PEPT1, amino acid residues 391-571), His-tag fusion protein (human, UniProt P46059 391-571)
T2 construct: purified under denaturing conditions; also called recombinant hPEPT1; not shown: poly-histidine tag (pET vector) at the NH2-terminal end
T2 sequence: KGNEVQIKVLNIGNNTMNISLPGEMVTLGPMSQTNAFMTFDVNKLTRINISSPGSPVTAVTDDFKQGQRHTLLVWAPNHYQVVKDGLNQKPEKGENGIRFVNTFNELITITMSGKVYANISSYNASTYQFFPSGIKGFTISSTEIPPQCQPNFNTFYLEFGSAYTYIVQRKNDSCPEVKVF

B1: DAB3 (peptide)
peptide: RWCGAELCNSVTKKFRPGWRDHANPSTHHRTPPPSQSSPAETVESCLAKPHTENSFTNVWKDDKTLDRYANYEGCLWNATGVVVCTGDETQCYGTWVPIGLAIPENEGGGSEGGGSEGGGSEGGGTKPPEYGDTPIPGYTYINPLDGTYPPGTEQNPANPNPSLEESQPLNTFMFQNNRFRNRQGALTVYTGTVTQGTDPVKTYYQYTPVSSKAMYDAYWNGKFRDCAFHSGFNEDPFVCEYQGQSSDLPQPPVNAGGGSGGGSGGGSEGGGSEGGGSEGGGSEGGGSGGGSGSGDFDYEKMANANKGAMTENADENALQSDAKGKLDSVATDYGAAIDGFIGDVSGLANGNGATGDFAGSNSQMAQVGDGDNSPLMNNFRQYLPSLPQSVECRPFVFSAGKPYEFSIDCDKINLFRGVFAFLLYVATFMYVFSTFANILRNKES
notes: Assayed as M13 phage clone displaying the insert
B2: DAB18 (peptide)
peptide: RSSANNCEWKSDWMRRACIARYANSSGPARAVDTKAAPAETVESCLAKPHTENSFTNVWKDDKTLDRYANYEGCLWNATGVVVCTGDETQCYGTWVPIGLAIPENEGGGSEGGGSEGGGSEGGGTKPPEYGDTPIPGYTYINPLDGTYPPGTEQNPANPNPSLEESQPLNTFMFQNNRFRNRQGALTVYTGTVTQGTDPVKTYYQYTPVSSKAMYDAYWNGKFRDCAFHSGFNEDPFVCEYQGQSSDLPQPPVNAGGGSGGGSGGGSEGGGSEGGGSEGGGSEGGGSGGGSGSGDFDYEKMANANKGAMTENADENALQSDAKGKLDSVATDYGAAIDGFIGDVSGLANGNGATGDFAGSNSQMAQVGDGDNSPLMNNFRQYLPSLPQSVECRPFVFSAGKPYEFSIDCDKINLFRGVFAFLLYVATFMYVFSTFANILRNKES
notes: as for B1
B3: DAB24 (peptide)
peptide: SKWSWSSRWGSPQDKVEKTRAGCGGSPSSTNCHPYTFAPPPQAGAETVESCLAKPHTENSFTNVWKDDKTLDRYANYEGCLWNATGVVVCTGDETQCYGTWVPIGLAIPENEGGGSEGGGSEGGGSEGGGTKPPEYGDTPIPGYTYINPLDGTYPPGTEQNPANPNPSLEESQPLNTFMFQNNRFRNRQGALTVYTGTVTQGTDPVKTYYQYTPVSSKAMYDAYWNGKFRDCAFHSGFNEDPFVCEYQGQSSDLPQPPVNAGGGSGGGSGGGSEGGGSEGGGSEGGGSEGGGSGGGSGSGDFDYEKMANANKGAMTENADENALQSDAKGKLDSVATDYGAAIDGFIGDVSGLANGNGATGDFAGSNSQMAQVGDGDNSPLMNNFRQYLPSLPQSVECRPFVFSAGKPYEFSIDCDKINLFRGVFAFLLYVATFMYVFSTFANILRNKES
notes: as for B1
B4: DAB7 (peptide)
peptide: RWCGADDPCGASRWRGGNSLFGCGLRCSAAQSTPSGRIHSTSTSAETVESCLAKPHTENSFTNVWKDDKTLDRYANYEGCLWNATGVVVCTGDETQCYGTWVPIGLAIPENEGGGSEGGGSEGGGSEGGGTKPPEYGDTPIPGYTYINPLDGTYPPGTEQNPANPNPSLEESQPLNTFMFQNNRFRNRQGALTVYTGTVTQGTDPVKTYYQYTPVSSKAMYDAYWNGKFRDCAFHSGFNEDPFVCEYQGQSSDLPQPPVNAGGGSGGGSGGGSEGGGSEGGGSEGGGSEGGGSGGGSGSGDFDYEKMANANKGAMTENADENALQSDAKGKLDSVATDYGAAIDGFIGDVSGLANGNGATGDFAGSNSQMAQVGDGDNSPLMNNFRQYLPSLPQSVECRPFVFSAGKPYEFSIDCDKINLFRGVFAFLLYVATFMYVFSTFANILRNKES
notes: as for B1
B5: S15 (peptide)
peptide: RSGAYESPDGRGGRSYVGGGGGCGNIGRKHNLWGLRTASPACWDAETVESCLAKPHTENSFTNVWKDDKTLDRYANYEGCLWNATGVVVCTGDETQCYGTWVPIGLAIPENEGGGSEGGGSEGGGSEGGGTKPPEYGDTPIPGYTYINPLDGTYPPGTEQNPANPNPSLEESQPLNTFMFQNNRFRNRQGALTVYTGTVTQGTDPVKTYYQYTPVSSKAMYDAYWNGKFRDCAFHSGFNEDPFVCEYQGQSSDLPQPPVNAGGGSGGGSGGGSEGGGSEGGGSEGGGSEGGGSGGGSGSGDFDYEKMANANKGAMTENADENALQSDAKGKLDSVATDYGAAIDGFIGDVSGLANGNGATGDFAGSNSQMAQVGDGDNSPLMNNFRQYLPSLPQSVECRPFVFSAGKPYEFSIDCDKINLFRGVFAFLLYVATFMYVFSTFANILRNKES
notes: as for B1
B6: S21 (peptide)
peptide: SPRSFWPVVSRHESFGISNYLGCGYRTCISGTMTKSSPIYPRHSAETVESCLAKPHTENSFTNVWKDDKTLDRYANYEGCLWNATGVVVCTGDETQCYGTWVPIGLAIPENEGGGSEGGGSEGGGSEGGGTKPPEYGDTPIPGYTYINPLDGTYPPGTEQNPANPNPSLEESQPLNTFMFQNNRFRNRQGALTVYTGTVTQGTDPVKTYYQYTPVSSKAMYDAYWNGKFRDCAFHSGFNEDPFVCEYQGQSSDLPQPPVNAGGGSGGGSGGGSEGGGSEGGGSEGGGSEGGGSGGGSGSGDFDYEKMANANKGAMTENADENALQSDAKGKLDSVATDYGAAIDGFIGDVSGLANGNGATGDFAGSNSQMAQVGDGDNSPLMNNFRQYLPSLPQSVECRPFVFSAGKPYEFSIDCDKINLFRGVFAFLLYVATFMYVFSTFANILRNKES
notes: as for B1
B7: S22 (peptide)
peptide: SSSSDWGGVPGKVVRERFKGRGCGISITSVLTGKPNPCPEPKAAAETVESCLAKPHTENSFTNVWKDDKTLDRYANYEGCLWNATGVVVCTGDETQCYGTWVPIGLAIPENEGGGSEGGGSEGGGSEGGGTKPPEYGDTPIPGYTYINPLDGTYPPGTEQNPANPNPSLEESQPLNTFMFQNNRFRNRQGALTVYTGTVTQGTDPVKTYYQYTPVSSKAMYDAYWNGKFRDCAFHSGFNEDPFVCEYQGQSSDLPQPPVNAGGGSGGGSGGGSEGGGSEGGGSEGGGSEGGGSGGGSGSGDFDYEKMANANKGAMTENADENALQSDAKGKLDSVATDYGAAIDGFIGDVSGLANGNGATGDFAGSNSQMAQVGDGDNSPLMNNFRQYLPSLPQSVECRPFVFSAGKPYEFSIDCDKINLFRGVFAFLLYVATFMYVFSTFANILRNKES
notes: as for B1
B8: PAX15 (peptide)
peptide: SYCRVKGGGEGGHTDSNLARSGCGKVARTSRLQHINPRATPPSRAETVESCLAKPHTENSFTNVWKDDKTLDRYANYEGCLWNATGVVVCTGDETQCYGTWVPIGLAIPENEGGGSEGGGSEGGGSEGGGTKPPEYGDTPIPGYTYINPLDGTYPPGTEQNPANPNPSLEESQPLNTFMFQNNRFRNRQGALTVYTGTVTQGTDPVKTYYQYTPVSSKAMYDAYWNGKFRDCAFHSGFNEDPFVCEYQGQSSDLPQPPVNAGGGSGGGSGGGSEGGGSEGGGSEGGGSEGGGSGGGSGSGDFDYEKMANANKGAMTENADENALQSDAKGKLDSVATDYGAAIDGFIGDVSGLANGNGATGDFAGSNSQMAQVGDGDNSPLMNNFRQYLPSLPQSVECRPFVFSAGKPYEFSIDCDKINLFRGVFAFLLYVATFMYVFSTFANILRNKES
notes: as for B1
B9: PAX16 (peptide)
peptide: SWTRWGKHTHGGFVNKSPPGKNATSPYTDAQLPSDQGPPAETVESCLAKPHTENSFTNVWKDDKTLDRYANYEGCLWNATGVVVCTGDETQCYGTWVPIGLAIPENEGGGSEGGGSEGGGSEGGGTKPPEYGDTPIPGYTYINPLDGTYPPGTEQNPANPNPSLEESQPLNTFMFQNNRFRNRQGALTVYTGTVTQGTDPVKTYYQYTPVSSKAMYDAYWNGKFRDCAFHSGFNEDPFVCEYQGQSSDLPQPPVNAGGGSGGGSGGGSEGGGSEGGGSEGGGSEGGGSGGGSGSGDFDYEKMANANKGAMTENADENALQSDAKGKLDSVATDYGAAIDGFIGDVSGLANGNGATGDFAGSNSQMAQVGDGDNSPLMNNFRQYLPSLPQSVECRPFVFSAGKPYEFSIDCDKINLFRGVFAFLLYVATFMYVFSTFANILRNKES
notes: as for B1
B10: PAX14 (peptide)
peptide: RTFENDGLGVGRSIQKKSDRWYASHNIRSHFASMSPAGKAETVESCLAKPHTENSFTNVWKDDKTLDRYANYEGCLWNATGVVVCTGDETQCYGTWVPIGLAIPENEGGGSEGGGSEGGGSEGGGTKPPEYGDTPIPGYTYINPLDGTYPPGTEQNPANPNPSLEESQPLNTFMFQNNRFRNRQGALTVYTGTVTQGTDPVKTYYQYTPVSSKAMYDAYWNGKFRDCAFHSGFNEDPFVCEYQGQSSDLPQPPVNAGGGSGGGSGGGSEGGGSEGGGSEGGGSEGGGSGGGSGSGDFDYEKMANANKGAMTENADENALQSDAKGKLDSVATDYGAAIDGFIGDVSGLANGNGATGDFAGSNSQMAQVGDGDNSPLMNNFRQYLPSLPQSVECRPFVFSAGKPYEFSIDCDKINLFRGVFAFLLYVATFMYVFSTFANILRNKES
notes: as for B1

These binders were tested against T1, D2H receptor domain (human D2H …) (assay: phage ELISA, plate coated with D2H domain).
Description: (§1) 6.6. Receptor ELISA Procedure 96 well plates were coated overnight with GIT receptor, BSA and, optionally, IDE (insulin degrading enzyme, an irrelevant His-fusion protein)or hTF. The plates were blocked for one hour with 0.5% BSA-PBS. After clarification, the amplified phage were diluted 1:100 in […] plus 0.05% Tween 20 in PBS and added to the plates. Following incubation of the plates on a rotator for 1 to 2 hours, the plates were washed 5 times with 1% BSA plus 0.05% Tween 20 in PBS. […] After the plates were washed 5 times, as described above, TMB substrate was added to the wells. The plates were read at 650 nm absorbance.

Q: B1 was tested. Which OD did it give?
A: 0.406 OD

Q: For B2, which OD is on record?
A: 0.467 OD

Q: With B3 as the binder, how does the OD read?
A: 1.8 OD

Q: B4 was tested. Which OD did it give?
A: 0.702 OD

Each binder was assayed against T3, hSI receptor domain (human sucrase-isomaltase complex, amino acid residues 272-667), His-tag fusion protein (human, UniProt P14410 272-667) (assay: phage ELISA, plate coated with hSI domain).
T3 construct: also called hS1; recombinant hSI; not shown: poly-histidine tag (pET vector) at the NH2-terminal end
T3 sequence (P14410 272-667, one chain of several): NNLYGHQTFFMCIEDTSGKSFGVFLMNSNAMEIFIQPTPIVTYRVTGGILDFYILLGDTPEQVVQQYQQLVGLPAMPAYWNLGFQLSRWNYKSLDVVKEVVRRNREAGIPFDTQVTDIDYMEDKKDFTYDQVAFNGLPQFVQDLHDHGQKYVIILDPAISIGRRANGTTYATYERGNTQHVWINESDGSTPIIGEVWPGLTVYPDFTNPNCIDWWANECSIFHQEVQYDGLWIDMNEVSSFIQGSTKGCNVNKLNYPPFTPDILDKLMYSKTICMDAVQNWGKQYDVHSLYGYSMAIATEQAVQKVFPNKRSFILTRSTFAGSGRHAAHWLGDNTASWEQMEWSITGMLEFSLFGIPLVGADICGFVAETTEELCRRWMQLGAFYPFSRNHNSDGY
Description: as §1

Q: For B5, which OD is on record?
A: 0.478 OD

Q: For B6, which OD is on record?
A: 0.845 OD

Q: How did the OD turn out when B7 was run?
A: 0.399 OD

These binders were tested against T2, hPEPT1 receptor domain (human PEPT1, …) (assay: phage ELISA, plate coated with hPEPT1 domain).
Description: as §1

Q: For B8, which OD is on record?
A: 0.301 OD

Q: Which OD does the source give for B9 here?
A: 0.648 OD

Q: How did the OD turn out when B10 was run?
A: 1.1 OD
